molecular target: T1, ceh-52 (C07E3.5) (Caenorhabditis elegans) (UniProt Q17788)
T1 sequence: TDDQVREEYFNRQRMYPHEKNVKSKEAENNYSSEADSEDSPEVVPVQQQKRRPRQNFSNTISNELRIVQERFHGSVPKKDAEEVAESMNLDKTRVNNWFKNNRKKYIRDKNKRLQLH

Sequence	binding signal (PBM E-score (-0.5 to 0.5))
TAACTCTA (double strand) [8-mer TAACTCTA]	0.459
GGTGTTAA (double strand) [8-mer GGTGTTAA]	0.459
GGAGTTAA (double strand) [8-mer GGAGTTAA]	0.464
AAGAGTTA (double strand) [8-mer AAGAGTTA]	0.463
AGAGTTAA (double strand) [8-mer AGAGTTAA]	0.452
GGGAGTTA (double strand) [8-mer GGGAGTTA]	0.459
ATAACACC (double strand) [8-mer ATAACACC]	0.457
TAACTCCA (double strand) [8-mer TAACTCCA]	0.475
ATAACTCC (double strand) [8-mer ATAACTCC]	0.482
AGAGTTAT (double strand) [8-mer AGAGTTAT]	0.481

molecular target: T2, ceh-51 (Y80D3A.3) (Caenorhabditis elegans) (UniProt Q9U1R1)
T2 sequence: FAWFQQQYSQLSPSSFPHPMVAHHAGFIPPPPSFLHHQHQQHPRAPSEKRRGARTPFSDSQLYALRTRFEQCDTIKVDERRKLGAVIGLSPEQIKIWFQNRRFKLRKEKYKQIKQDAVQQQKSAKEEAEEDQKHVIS

Sequence	binding signal (PBM E-score (-0.5 to 0.5))
ATATTAAT (double strand) [8-mer ATATTAAT]	0.467

molecular target: T3, ceh-26 (K12H4.1) (Caenorhabditis elegans) (UniProt P34522)
T3 sequence: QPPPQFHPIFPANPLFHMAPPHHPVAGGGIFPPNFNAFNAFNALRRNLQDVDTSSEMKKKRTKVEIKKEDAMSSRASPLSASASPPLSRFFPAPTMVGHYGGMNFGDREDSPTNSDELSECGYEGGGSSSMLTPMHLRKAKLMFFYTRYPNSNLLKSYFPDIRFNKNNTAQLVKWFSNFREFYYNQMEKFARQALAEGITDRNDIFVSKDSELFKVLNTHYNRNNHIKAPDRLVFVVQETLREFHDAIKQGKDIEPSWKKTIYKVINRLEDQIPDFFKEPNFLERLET

Sequence	binding signal (PBM E-score (-0.5 to 0.5))
CAAGAAAA (double strand) [8-mer CAAGAAAA]	0.469
CGAAGAAA (double strand) [8-mer CGAAGAAA]	0.453
TGAAGAAA (double strand) [8-mer TGAAGAAA]	0.453
AACGTCTT (double strand) [8-mer AACGTCTT]	0.48
AAGATCTT (double strand) [8-mer AAGATCTT]	0.457
TCTTAAGA (double strand) [8-mer TCTTAAGA]	0.482
AAGACATT (double strand) [8-mer AAGACATT]	0.458
CGTCTTGA (double strand) [8-mer CGTCTTGA]	0.454
TCAAGAAA (double strand) [8-mer TCAAGAAA]	0.462
CCAAGAAA (double strand) [8-mer CCAAGAAA]	0.472
AACATCTT (double strand) [8-mer AACATCTT]	0.457
AAGAAAGT (double strand) [8-mer AAGAAAGT]	0.456

molecular target: T4, Y61A9LA.9 (Y61A9LA.9) (Caenorhabditis elegans) (UniProt Q9N312)
T4 sequence: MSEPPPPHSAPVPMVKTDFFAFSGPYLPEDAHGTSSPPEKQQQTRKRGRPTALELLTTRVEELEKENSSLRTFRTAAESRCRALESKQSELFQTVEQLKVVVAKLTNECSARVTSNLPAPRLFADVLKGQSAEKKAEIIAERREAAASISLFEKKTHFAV

Sequence	binding signal (PBM E-score (-0.5 to 0.5))
TAAAATAA (double strand) [8-mer TAAAATAA]	0.453
ATTTAAAT (double strand) [8-mer ATTTAAAT]	0.47
AAATAATT (double strand) [8-mer AAATAATT]	0.457
AAAATAAT (double strand) [8-mer AAAATAAT]	0.451
AATAATAA (double strand) [8-mer AATAATAA]	0.461
AAATATAT (double strand) [8-mer AAATATAT]	0.452
AATATTAA (double strand) [8-mer AATATTAA]	0.455
ATATTAAT (double strand) [8-mer ATATTAAT]	0.453
AAATAAAT (double strand) [8-mer AAATAAAT]	0.452
AATATATT (double strand) [8-mer AATATATT]	0.465
AATTAATT (double strand) [8-mer AATTAATT]	0.454

molecular target: T5, ceh-23 (ZK652.5) (Caenorhabditis elegans) (UniProt P34663)
T5 sequence: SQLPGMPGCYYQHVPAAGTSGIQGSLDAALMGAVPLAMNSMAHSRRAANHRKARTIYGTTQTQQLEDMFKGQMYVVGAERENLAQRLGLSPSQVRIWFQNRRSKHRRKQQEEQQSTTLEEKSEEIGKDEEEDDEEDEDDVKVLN

Sequence	binding signal (PBM E-score (-0.5 to 0.5))
AATTAATT (double strand) [8-mer AATTAATT]	0.492

molecular target: T6, dmd-6 (F13G11.1) (Caenorhabditis elegans) (UniProt O62159)
T6 sequence: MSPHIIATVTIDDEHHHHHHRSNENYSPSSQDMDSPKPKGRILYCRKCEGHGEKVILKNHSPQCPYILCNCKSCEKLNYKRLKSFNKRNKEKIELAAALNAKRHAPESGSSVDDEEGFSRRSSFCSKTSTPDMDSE

Sequence	binding signal (PBM E-score (-0.5 to 0.5))
AAATATAT (double strand) [8-mer AAATATAT]	0.48

molecular target: T7, pax-2 (K06B9.5) (Caenorhabditis elegans) (UniProt Q21263)
T7 sequence: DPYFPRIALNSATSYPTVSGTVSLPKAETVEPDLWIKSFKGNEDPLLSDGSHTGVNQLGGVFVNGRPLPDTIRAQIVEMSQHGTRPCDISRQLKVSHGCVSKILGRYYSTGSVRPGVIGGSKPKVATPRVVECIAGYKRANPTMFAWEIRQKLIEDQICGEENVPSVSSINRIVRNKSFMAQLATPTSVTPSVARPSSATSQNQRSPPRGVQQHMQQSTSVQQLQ

Sequence	binding signal (PBM E-score (-0.5 to 0.5))
CGTCACGC (double strand) [8-mer CGTCACGC]	0.488
GTCACGGA (double strand) [8-mer GTCACGGA]	0.453
GGCGTGAC (double strand) [8-mer GGCGTGAC]	0.468
AGCGTGAC (double strand) [8-mer AGCGTGAC]	0.488
GCGTGACC (double strand) [8-mer GCGTGACC]	0.486
CGTGACGA (double strand) [8-mer CGTGACGA]	0.461
CGTGACCA (double strand) [8-mer CGTGACCA]	0.479
ACCGTGAC (double strand) [8-mer ACCGTGAC]	0.495
CCGTGACG (double strand) [8-mer CCGTGACG]	0.489
ACCATGAC (double strand) [8-mer ACCATGAC]	0.454
GTCACGCA (double strand) [8-mer GTCACGCA]	0.481
CCGTGACC (double strand) [8-mer CCGTGACC]	0.484
CGGTCACG (double strand) [8-mer CGGTCACG]	0.473

molecular target: sptf-3 (Y40B1A.4) (Caenorhabditis elegans) (UniProt Q9XW26)
Sequence (Q9XW26 266-412): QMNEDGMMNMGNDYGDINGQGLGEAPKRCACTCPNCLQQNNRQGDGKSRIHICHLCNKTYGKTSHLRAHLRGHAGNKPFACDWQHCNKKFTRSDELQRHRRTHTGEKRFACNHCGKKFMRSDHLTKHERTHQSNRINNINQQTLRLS

Sequence	binding signal (PBM E-score (-0.5 to 0.5))
CACGCCCC (double strand) [8-mer CACGCCCC]	0.473
CTCCGCCC (double strand) [8-mer CTCCGCCC]	0.451
GGGGCGGA (double strand) [8-mer GGGGCGGA]	0.475
ACCGCCCC (double strand) [8-mer ACCGCCCC]	0.476
ACGCCCCT (double strand) [8-mer ACGCCCCT]	0.452
AGGGGCGG (double strand) [8-mer AGGGGCGG]	0.494
GGGGCGTA (double strand) [8-mer GGGGCGTA]	0.462
ATGGGCGG (double strand) [8-mer ATGGGCGG]	0.456

molecular target: T8, tbx-38 (C24H11.3) (Caenorhabditis elegans) (UniProt Q9XVD5)
T8 sequence: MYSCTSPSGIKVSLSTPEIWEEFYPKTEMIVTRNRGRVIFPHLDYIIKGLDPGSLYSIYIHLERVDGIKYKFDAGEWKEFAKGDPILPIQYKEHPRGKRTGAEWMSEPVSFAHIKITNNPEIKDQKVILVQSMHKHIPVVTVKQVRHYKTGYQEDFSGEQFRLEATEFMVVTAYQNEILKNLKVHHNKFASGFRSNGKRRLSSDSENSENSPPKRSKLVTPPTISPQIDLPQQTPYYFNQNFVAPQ

Sequence	binding signal (PBM E-score (-0.5 to 0.5))
GGTGTTAA (double strand) [8-mer GGTGTTAA]	0.488

molecular target: T9, eyg-1 (Y53C12C.1) (Caenorhabditis elegans) (UniProt O01996)
T9 sequence: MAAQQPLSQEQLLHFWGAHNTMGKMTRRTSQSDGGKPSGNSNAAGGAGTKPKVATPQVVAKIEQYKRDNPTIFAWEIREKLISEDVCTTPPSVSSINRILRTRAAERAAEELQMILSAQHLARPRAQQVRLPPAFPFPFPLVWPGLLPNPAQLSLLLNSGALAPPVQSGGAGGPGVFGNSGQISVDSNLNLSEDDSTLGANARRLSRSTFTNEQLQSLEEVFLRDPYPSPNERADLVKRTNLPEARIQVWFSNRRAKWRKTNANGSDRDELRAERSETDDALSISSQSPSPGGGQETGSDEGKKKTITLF

Sequence	binding signal (PBM E-score (-0.5 to 0.5))
AATTAATT (double strand) [8-mer AATTAATT]	0.489

molecular target: T10, die-1 (C18D1.1) (Caenorhabditis elegans) (UniProt A0A131MCR4)
T10 sequence: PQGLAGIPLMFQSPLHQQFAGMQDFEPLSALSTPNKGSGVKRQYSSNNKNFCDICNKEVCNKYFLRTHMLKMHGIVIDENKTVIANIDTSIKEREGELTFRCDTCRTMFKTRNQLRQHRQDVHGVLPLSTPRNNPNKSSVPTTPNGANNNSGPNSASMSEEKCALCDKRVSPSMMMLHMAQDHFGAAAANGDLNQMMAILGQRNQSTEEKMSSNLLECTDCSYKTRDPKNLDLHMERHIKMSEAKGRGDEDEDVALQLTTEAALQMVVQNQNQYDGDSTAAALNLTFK

Sequence	binding signal (PBM E-score (-0.5 to 0.5))
ATTTAAAT (double strand) [8-mer ATTTAAAT]	0.477

molecular target: T11, tbx-43 (Y46E12A.4) (Caenorhabditis elegans) (UniProt Q1T6W8)
T11 sequence: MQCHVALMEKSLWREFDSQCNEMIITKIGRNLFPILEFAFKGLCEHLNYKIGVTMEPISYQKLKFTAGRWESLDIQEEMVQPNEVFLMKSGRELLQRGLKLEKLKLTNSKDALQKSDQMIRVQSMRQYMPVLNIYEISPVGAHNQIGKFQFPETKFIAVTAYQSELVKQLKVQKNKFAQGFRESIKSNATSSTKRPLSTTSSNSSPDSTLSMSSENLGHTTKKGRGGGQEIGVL

Sequence	binding signal (PBM E-score (-0.5 to 0.5))
GGTGTTAA (double strand) [8-mer GGTGTTAA]	0.492
